Assay results published in the supplement of paper PMC7877785.
± gives the uncertainty stated by the source.

Assay: self-splicing fitness, log relative to wild type (ln ratio); higher = more splicing; Tetrahymena group I intron in knt gene, E. coli kanamycin selection, DiMSum; sequences stand for … in CUCUCU…GGAGGGAAAAGUUAUCAGGCAUGCACCUGGUAGCUAGUCUUUAAACCAAUAGAUUGCAUCGGUUUAAAAGGCAAGACCGUCAAAUUGCGGGAAAGGGGUCAACAGCCGUUCAGUACCAAGUCUCAGGGGAAACUUUGAGAUGGCCUUGCAAAGGGUAUGGUAAUAAGCUGACGGACAUGGUCCUAACCACGCAGCCAAGUCCUAAGUCAACAGAUCUUCUGUUGAUAUGGAUGCAGUUCACAGACUAAAUGUCGGUCGGGGAAGAUGUAUUCUUCUCAUAAGAUAUAGUCGGACCUCUCCUUAAUGGGAGCUAGCGGAUGAAGUGAUGCAACACUGGAGCCGCUGGGAACUAAUUUGUAUGCGAAAGUAUAUUGAUUAGUUUUGGAGUACUCGUGGUCG
In short: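 Library with all eight P1ex-region intron nucleotides randomised, intron inside the knt kanamycin-resistance gene on pET-22b(+), in E. coli BL21(DE3). Cells grew overnight at 37°C or 30°C on LB agar with or without 25 μg/mL kanamycin (plus 100 μg/mL carbenicillin, 50 μM IPTG, 0.2% rhamnose), in six replicate transformations. Pooled colonies were amplicon-sequenced on Illumina HiSeq 2500. DiMSum fitness is the error-weighted combination of wild-type-normalised replicate fold changes, kanamycin versus none.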

Row | Sequence | self-splicing fitness (ln) (30 °C) | self-splicing fitness (ln) (37 °C)
1 | CAUAAGCAAUAUUACGGACG | 0.133 ± 0.093 | 0.568 ± 0.12
2 | CAUAAGCAAUAUUACGGCAA | -2.52 ± 0.18 | -1.61 ± 0.18
3 | CAUAAGCAAUAUUACGGGCA | -2.77 ± 0.18 | -1.8 ± 0.19
4 | CAUAAGCAAUAUUACGGGGC | -3.25 ± 0.26 | -1.22 ± 0.16
5 | CAUAAGCAAUAUUACGGUAA | -3.92 ± 0.46 | -2.77 ± 0.29
6 | CAUAAGCAAUAUUACGGUCU | -2.8 ± 0.3 | -1.51 ± 0.2
7 | CAUAAGCAAUAUUACGGUUA | -2.7 ± 0.16 | -2.05 ± 0.12
8 | CAUAAGCAAUAUUACGGUUU | -4.02 ± 0.19 | -2.69 ± 0.17
9 | CAUAAGCAAUAUUACGUAAU | -4.04 ± 0.28 | -2.16 ± 0.14
10 | CAUAAGCAAUAUUACGUAGA | -3.68 ± 0.13 | -1.97 ± 0.12
11 | CAUAAGCAAUAUUACGUCUC | -3.68 ± 0.3 | -2.52 ± 0.29
12 | CAUAAGCAAUAUUACGUGAG | -3.12 ± 0.13 | -0.711 ± 0.099
13 | CAUAAGCAAUAUUACGUUCA | -3.29 ± 0.13 | -1.95 ± 0.13
14 | CAUAAGCAAUAUUACGUUCU | -3.28 ± 0.23 | -3.1 ± 0.3
15 | CAUCAGCAAUAUUACGAACA | -2.82 ± 0.25 | -1.85 ± 0.21
16 | CAUCAGCAAUAUUACGAACC | -2.59 ± 0.24 | -0.525 ± 0.46
17 | CAUCAGCAAUAUUACGAGAG | -1.9 ± 0.072 | -0.955 ± 0.075
18 | CAUCAGCAAUAUUACGAGAU | -3.84 ± 0.18 | -3.71 ± 0.21
19 | CAUCAGCAAUAUUACGAGGC | -3.77 ± 0.2 | -2.64 ± 0.21
20 | CAUCAGCAAUAUUACGAGGU | -3.46 ± 0.21 | -2.86 ± 0.22
21 | CAUCAGCAAUAUUACGAGUC | -4.85 ± 0.34 | -1.6 ± 0.21

Row | Sequence | self-splicing fitness (ln) (30 °C) | self-splicing fitness (ln) (37 °C)
22 | CAUCAGCAAUAUUACGAUAU | -1.76 ± 0.073 | -0.599 ± 0.085
23 | CAUCAGCAAUAUUACGAUGA | -2.62 ± 0.24 | -0.687 ± 0.15
24 | CAUCAGCAAUAUUACGAUUA | -0.634 ± 0.091 | -0.682 ± 0.085
25 | CAUCAGCAAUAUUACGCAAG | -0.655 ± 0.065 | -0.304 ± 0.065
26 | CAUCAGCAAUAUUACGCCCA | -2.9 ± 0.23 | -2.1 ± 0.21
27 | CAUCAGCAAUAUUACGCGUC | -2.58 ± 0.089 | -0.783 ± 0.086
28 | CAUCAGCAAUAUUACGGGCA | -2.51 ± 0.12 | -1.83 ± 0.14
29 | CAUCAGCAAUAUUACGGGCC | -3.02 ± 0.45 | -2.29 ± 0.47
30 | CAUCAGCAAUAUUACGGGCU | -4.04 ± 0.31 | -2.48 ± 0.2
31 | CAUCAGCAAUAUUACGUACG | 0.0534 ± 0.077 | -0.0455 ± 0.097
32 | CAUCAGCAAUAUUACGUAGU | -1.66 ± 0.04 | -0.682 ± 0.06
33 | CAUCAGCAAUAUUACGUAUU | -2.15 ± 0.097 | -1.65 ± 0.11
34 | CAUCAGCAAUAUUACGUCAG | -0.52 ± 0.062 | 0.43 ± 0.092
35 | CAUCAGCAAUAUUACGUCCC | -2.53 ± 0.31 | -1.39 ± 0.27
36 | CAUCAGCAAUAUUACGUCCG | -0.619 ± 0.059 | 0.497 ± 0.088
37 | CAUCAGCAAUAUUACGUGAU | -2.78 ± 0.078 | -0.987 ± 0.086
38 | CAUCAGCAAUAUUACGUGGG | -1.9 ± 0.075 | -1.71 ± 0.1
39 | CAUCAGCAAUAUUACGUUAA | -2.79 ± 0.16 | -1.85 ± 0.17
40 | CAUCAGCAAUAUUACGUUUA | -1.36 ± 0.086 | -1.36 ± 0.094
41 | CAUGAGCAAUAUUACGAAGA |  | -2.3 ± 0.26
42 | CAUGAGCAAUAUUACGAGAA | -0.549 ± 0.29 | 
